Test results published in the supplement of paper PMC10126150.
± gives the standard deviation of the averaged measurements.

test system: ATP; test: switch fluorescence ratio, 500 uM ATP over buffer (Cy3 cluster intensity, sum of 5 cycles each) (fold (ratio)); higher = stronger signal-on switching upon ATP binding; sequences stand for … in TCGTCGGCAGCGTCAGATGTGTATAAGAGACAGTTTTTTTTTTTTTTTTTTTTTTTTT…TC; conditions: aptamer strand: ATP DNA aptamer (quencher-CACCTGGGGGAGTATTGCGGAGGAAGG + anchor), 100 nM annealed; ATP concentration: 500 uM
Method in brief: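 Exposure to 500 uM ATP lasted 15 min at 22 °C before imaging, and a selection-buffer image was taken beforehand, for Cy3-labelled switching-strand clusters on a modified Illumina MiSeq flow-cell annealed to 100 nM quencher-labelled ATP aptamer. Five buffer/ATP cycles were run with NaOH stripping and re-annealing between them. The fluorescence ratio per cluster is summed target-cycle over summed buffer-cycle Cy3 intensity, averaged per switch-domain sequence. Clusters outside 100-1000 RFU were excluded.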

Point of comparison: AACTCAGCCG, switch fluorescence ratio 1.03 ± 0.013. Against it:
- AACGGGTAGC — within error, 0.993 ± 0.029
- AACGGTCTGA — lower, 1.009 ± 0.0024
- AACGGTTGAT — lower, 0.974 ± 0.015
- AACGGTTTGG — within error, 1.01 ± 0.021
- AACGTGAGGG — within error, 0.989 ± 0.051
- AACGTGATTA — higher, 1.07 ± 0.023
- AACGTGTTTT — within error, 1.042 ± 0.006
- AACGTTATCT — within error, 1.04 ± 0.015
- AACGTTCGCC — within error, 0.987 ± 0.032
- AACGTTGTAC — higher, 1.51 ± 0.037
- AACTAGATCG — within error, 1.02 ± 0.028
- AACTAGGGTG — higher, 1.12 ± 0.013
- AACTATATGG — within error, 1.046 ± 0.0081
- AACTCACGGG — higher, 1.63 ± 0.083
- AACTCCAGTA — lower, 1.008 ± 0.005
- AACTCCCTTT — higher, 1.067 ± 0.0086
- AACTCCGGCG — higher, 1.129 ± 0.0087
- AACTCTAAAA — within error, 1.05 ± 0.051
- AACTGAGACT — within error, 1.02 ± 0.032
- AACTGAGTTT — lower, 1.008 ± 0.0015
- AACTGCGGTC — within error, 1.016 ± 0.0031
- AACTGGCAAT — higher, 1.5 ± 0.072
- AACTGTAAAT — higher, 1.25 ± 0.2
- AACTGTGGAA — lower, 0.991 ± 0.015
- AACTGTTTCG — lower, 0.9707 ± 0.0013
- AACTTGTTAG — within error, 1.01 ± 0.016
- AACTTTGTTG — lower, 1 ± 0.011
- AACTTTTAGT — lower, 0.99353 ± 0.00074
- AACTTTTTCG — lower, 1.012 ± 0.0034
- AACTTTTTTA — lower, 0.964 ± 0.017
- AAGAAAACGA — lower, 0.998 ± 0.011
- AAGAAAAGGA — within error, 1.02 ± 0.017
- AAGAAAGGTA — within error, 1.01 ± 0.025
- AAGAAAGTCG — lower, 0.9998 ± 0.0052
- AAGAAATAAA — lower, 0.9744 ± 0.0095
- AAGAAATGGT — within error, 1.05 ± 0.043
- AAGAACTTAG — the same, 1.026 ± 0.0074
- AAGAAGCAGA — within error, 1 ± 0.032
- AAGAAGCAGG — within error, 1.06 ± 0.037
- AAGAAGGGCA — within error, 1 ± 0.055
- AAGAAGGGGA — within error, 1.22 ± 0.31
- AAGAATATGT — lower, 0.9756 ± 0.008
- AAGAATTGGG — within error, 1.06 ± 0.11
- AAGACACGC — within error, 1.04 ± 0.042
- AAGACAGGAA — the same, 1.03 ± 0.05
- AAGACATGGG — lower, 1.002 ± 0.0021
- AAGACCGTTG — lower, 0.967 ± 0.017
- AAGACGGGGA — lower, 0.974 ± 0.023
- AAGAGACTGT — lower, 1.002 ± 0.0034
- AAGAGGCTGG — lower, 0.99 ± 0.024
- AAGAGGGACT — the same, 1.03 ± 0.021
- AAGAGGGCGG — within error, 0.991 ± 0.034
- AAGAGGGGAG — within error, 1.01 ± 0.013
- AAGAGGGGGA — within error, 0.996 ± 0.042
- AAGAGGGGGT — within error, 1 ± 0.03
- AAGAGGGGT — lower, 0.9904 ± 0.0048
- AAGAGGTTTT — within error, 1.01 ± 0.02
- AAGAGTAGAT — within error, 1.01 ± 0.017
- AAGAGTATCT — within error, 1.01 ± 0.013
- AAGAGTATTG — within error, 1 ± 0.02
- AAGAGTTTTT — lower, 0.981 ± 0.033
- AAGATACGTT — the same, 1.03 ± 0.011
- AAGATAGGTT — within error, 1.02 ± 0.057
- AAGATATGGC — within error, 1.02 ± 0.047
- AAGATCAGGC — lower, 0.9735 ± 0.0023
- AAGATGAGTA — lower, 0.982 ± 0.032
- AAGATGATGG — within error, 1.01 ± 0.023
- AAGATGGGTG — lower, 0.9968 ± 0.005
- AAGATGTAAT — within error, 1.01 ± 0.0079
- AAGATGTCGT — within error, 1.022 ± 0.0014
- AAGATTAGTT — lower, 0.998 ± 0.017
- AAGATTCGCC — lower, 0.993 ± 0.012
- AAGATTGTAA — within error, 0.996 ± 0.03
- AAGATTTAGG — within error, 1.01 ± 0.063
- AAGATTTGAC — lower, 1.003 ± 0.0085
- AAGATTTGTT — lower, 0.978 ± 0.021
- AAGATTTTAT — lower, 0.977 ± 0.019
- AAGATTTTGT — lower, 0.995 ± 0.014
- AAGATTTTTC — lower, 0.992 ± 0.013
- AAGCACGGTT — within error, 1.08 ± 0.093
- AAGCACGTTG — within error, 1.05 ± 0.027
- AAGCAGACGG — within error, 1.05 ± 0.036
- AAGCAGGGCT — within error, 0.999 ± 0.019
- AAGCAGGGTG — within error, 1 ± 0.04
- AAGCAGTCA — within error, 1.01 ± 0.038
- AAGCAGTTAC — higher, 3.41 ± 0.3
- AAGCATCTTT — lower, 0.974 ± 0.013
- AAGCATTTAC — higher, 3.118 ± 0.021
- AAGCCAGATG — higher, 1.076 ± 0.0092
- AAGCGAGGGG — the same, 1.03 ± 0.047
- AAGCGAGTTC — lower, 0.9981 ± 0.0089
- AAGCGCTTTT — within error, 0.979 ± 0.058
- AAGCGGGACG — within error, 0.999 ± 0.054
- AAGCGGGCAG — within error, 1 ± 0.02
- AAGCGGGGTG — within error, 1.06 ± 0.063
- AAGCGGTCGC — lower, 0.99 ± 0.017
- AAGCGTGCCT — within error, 1.01 ± 0.018
- AAGCTACGGC — within error, 1.02 ± 0.019
- AAGCTAGGAG — within error, 0.999 ± 0.041
- AAGCTCGGTA — lower, 0.9866 ± 0.0065
- AAGCTGATCT — within error, 1.016 ± 0.0071
- AAGCTGCCTG — within error, 1.02 ± 0.018
- AAGCTGTTTC — lower, 1.009 ± 0.0061
- AAGCTTTACG — within error, 1.052 ± 0.0079
- AAGCTTTATG — lower, 1.003 ± 0.0052
- AAGCTTTGGA — lower, 0.983 ± 0.012
- AAGCTTTTAT — within error, 0.993 ± 0.06
- AAGGAAAGGC — lower, 0.961 ± 0.037
- AAGGAAATAG — lower, 0.969 ± 0.0021
- AAGGAAGAGG — within error, 0.984 ± 0.064
- AAGGAATTAA — within error, 1.07 ± 0.12
- AAGGAATTGT — lower, 0.9729 ± 0.0085
- AAGGAATTTT — within error, 1.05 ± 0.1
- AAGGACAAGG — within error, 0.999 ± 0.043
- AAGGACCTCC — higher, 1.232 ± 0.0034
- AAGGACGCTG — within error, 0.991 ± 0.069
- AAGGACGTGG — lower, 0.98 ± 0.029
- AAGGACTAAC — higher, 1.12 ± 0.012
- AAGGACTATT — the same, 1.03 ± 0.011
- AAGGAGCTGA — lower, 0.9915 ± 0.0037
- AAGGAGTTTT — lower, 0.973 ± 0.034
- AAGGATTAGA — lower, 0.987 ± 0.02
- AAGGATTGGG — within error, 1.02 ± 0.0049
- AAGGCAACGC — within error, 0.98 ± 0.056
- AAGGCAATTT — within error, 1.02 ± 0.048
- AAGGCACCTG — the same, 1.03 ± 0.042
- AAGGCATGCA — within error, 1.01 ± 0.032
- AAGGCATGCG — within error, 1.037 ± 0.005
- AAGGCATTAT — lower, 1.005 ± 0.0081
- AAGGCCGGGT — within error, 1.05 ± 0.054
- AAGGCGGGGA — within error, 1.017 ± 0.0051
- AAGGCGGGGC — within error, 0.981 ± 0.051
- AAGGCTGCAG — lower, 0.92 ± 0.05
- AAGGCTTAGC — the same, 1.03 ± 0.039
- AAGGGAATAC — higher, 2.6 ± 0.82
- AAGGGATCTG — lower, 0.9763 ± 0.0069
- AAGGGATGCG — within error, 1.09 ± 0.097
- AAGGGATGGC — the same, 1.03 ± 0.043
- AAGGGATTAA — within error, 1.01 ± 0.016
- AAGGGATTGG — lower, 0.981 ± 0.031
- AAGGGCCTGG — lower, 0.982 ± 0.029
- AAGGGCGTAT — within error, 1.01 ± 0.02
- AAGGGCTCAT — lower, 0.97409 ± 0.00079
- AAGGGCTGTG — lower, 0.9845 ± 0.007
- AAGGGGACTT — within error, 1.02 ± 0.037
- AAGGGGAGGT — within error, 1.02 ± 0.041
- AAGGGGAGTC — lower, 1.01 ± 0.0044
- AAGGGGAGTG — within error, 1.02 ± 0.11
- AAGGGGATGG — lower, 0.968 ± 0.038
- AAGGGGATTA — within error, 0.99 ± 0.033
- AAGGGGCATT — within error, 1.01 ± 0.011
- AAGGGGCGAG — lower, 0.9796 ± 0.0074
